{"source": "paper PMC6624267", "parents": {"B1": {"name": "CARD9^2−97 (CARD9 CARD alone), wild type [human] / itself (parent)", "chain": "SDYENDDECWSVLEGFRVTLTSVIDPSRITPYLRQCKVLNPDDEEQVLSDPNLVIRKRKVGVLLDILQRTGHKGYVAFLESLELYYPQLYKKVTGK"}}, "data": [{"variants_of": "B1", "assay": "polymerization assay (absorbance at 350 nm)", "conditions": "with itself; 1 mM D43R/K58D + EDTA (parent trace is 150 uM WT + EDTA); 50 mM Tris, 150 mM NaCl, 0.5 mM TCEP, pH 7.0; 25 °C; read off a plot", "units": {"response": "A350"}, "values": [{"variant": "SDYENDDECWSVLEGFRVTLTSVIDPSRITPYLRQCKVLNPRDEEQVLSDPNLVIRDRKVGVLLDILQRTGHKGYVAFLESLELYYPQLYKKVTGK", "response": 1.7}]}]}
